Laboratory results as given in the Immune Epitope Database (IEDB).

Columns and labels:
HLA-A*24:02 = test: IEDB peptide-MHC binding, purified MHC/competitive/fluorescence; ≥ and ≤ were set here for values at or beyond the usual limits of such assays
HLA-A*01:01 = test: IEDB peptide-MHC binding, purified MHC/competitive/radioactivity; filed as Kd, often an IC50 or EC50 that approximates it; ≥ and ≤ were set here for values at or beyond the usual limits of such assays
HLA-A*26:01 = test: as above
HLA-A*29:02 = test: as above
HLA-A*30:01 = test: as above
HLA-A*30:02 = test: as above
HLA-A*32:01 = test: as above
HLA-B*15:01 [1] = test: as above
HLA-A*02:01 = test: IEDB peptide-MHC binding, purified MHC/competitive/fluorescence; ≥ and ≤ were set here for values at or beyond the usual limits of such assays
HLA-B*15:01 [2] = test: IEDB peptide-MHC binding, purified MHC/competitive/fluorescence; filed as Kd, often an IC50 or EC50 that approximates it; ≥ and ≤ were set here for values at or beyond the usual limits of such assays; conditions: source organism: Bacillus cereus G9241
[3] = source organism: Zaire ebolavirus
[4] = source organism: Mammarenavirus juninense
[5] = source organism: Vaccinia virus WR
[6] = source organism: Dengue virus 4 Philippines/H241/1956
[7] = source organism: Dengue virus 3 Martinique/1243/1999
[8] = source organism: Mammarenavirus brazilense
[9] = source organism: Sudan ebolavirus
[10] = source organism: Lymphocytic choriomeningitis virus (strain Armstrong)

With KNSQKGQHI the IC50 (HLA-A*24:02; [3]) was no less than 615 µM.
In the case of KTGEKSRCY, the Kd (HLA-A*01:01; [4]) is reported as no less than 22.5 µM, the Kd (HLA-A*26:01; [4]) is reported as no less than 77.9 µM and the Kd (HLA-A*29:02; [4]) is reported as no less than 78.9 µM. It also gave a Kd (HLA-A*30:01; [4]) of 2.48 µM, a Kd (HLA-A*30:02; [4]) of 2.19 µM and a Kd (HLA-A*32:01; [4]) of 0.116 µM.
KTIARFTYF gave a Kd (HLA-A*32:01; [5]) of 0.0952 µM and a Kd (HLA-B*15:01 [1]; [5]) of 0.000195 µM.
KTKLTDWDFV was tested, and the Kd (HLA-A*32:01; [6]) was 15.6 µM.
KVIQLSRKTF showed a Kd (HLA-B*15:01 [1]; source organism: Dengue virus 2 Jamaica/1409/1983) of 0.0495 µM.
Work on LFRFFECTF yielded a Kd (HLA-B*15:01 [1]; [5]) of 3.03 µM.
LIILSAVAI was tested, and the Kd (HLA-A*32:01; [5]) was 0.125 µM.
With LMILLTGGAM the Kd (HLA-B*15:01 [1]; [7]) was 0.00291 µM.
Sequence LQHILIEYM has a Kd (HLA-B*15:01 [1]; [5]) of 1.22 µM.
LVVGEKACL was tested, and the IC50 (HLA-A*02:01; [3]) was no less than 115 µM and the IC50 (HLA-A*24:02; [3]) was no less than 139 µM.
Work on LYPNVCIFG yielded an IC50 (HLA-A*24:02; source organism: Vaccinia virus) of 0.0716 µM.
NLSGVNNLE gave an IC50 (HLA-A*02:01; [3]) of no less than 227 µM and an IC50 (HLA-A*24:02; [3]) of no less than 86.4 µM.
NMRDLIVTF was tested, and the Kd (HLA-B*15:01 [1]; [5]) was 0.00826 µM.
NSIEYILSF gave a Kd (HLA-B*15:01 [1]; [5]) of 2.26 µM.
RIFFGKTSI was tested, and the Kd (HLA-A*32:01; [5]) was 0.00132 µM.
RISRFANLI was tested, and the Kd (HLA-A*32:01; [5]) was 0.00623 µM.
Sequence RLRGEQRKTF has a Kd (HLA-B*15:01 [1]; [6]) of 0.0244 µM.
For RMNAVSTIL, the Kd (HLA-B*15:01 [2]) was 0.0827 µM.
Sequence RYQATGFGT has an IC50 (HLA-A*02:01; [3]) of no less than 226 µM and an IC50 (HLA-A*24:02; [3]) of no less than 99.3 µM.
SLTEEFYHSY showed a Kd (HLA-A*01:01; [8]) of 0.129 µM, a Kd (HLA-A*26:01; [8]) of 3.41 µM and a Kd (HLA-A*29:02; [8]) of 1.44 µM. For the same sequence, the Kd (HLA-A*30:01; [8]) was no less than 58.5 µM, the Kd (HLA-A*30:02; [8]) was 0.225 µM and the Kd (HLA-A*32:01; [8]) was no less than 26.1 µM.
With SNTTGRLIW the IC50 (HLA-A*24:02; [9]) was 3.61 µM.
With STAPSSPPPY the Kd (HLA-A*01:01; [10]) was 0.034 µM, the Kd (HLA-A*26:01; [10]) was 8.26 µM and the Kd (HLA-A*29:02; [10]) was 2.69 µM. For the same sequence, the Kd (HLA-A*30:01; [10]) was 0.344 µM, the Kd (HLA-A*30:02; [10]) was 1.52 µM and the Kd (HLA-A*32:01; [10]) was 9.4 µM.
Sequence VISDLFPSF has a Kd (HLA-B*15:01 [1]; [5]) of 0.21 µM.
VQKEGVFHTM was tested, and the Kd (HLA-B*15:01 [1]; [7]) was 0.0242 µM.
VTAETQNSSF was tested, and the Kd (HLA-A*01:01; [7]) was 16.2 µM, the Kd (HLA-A*26:01; [7]) was no less than 20.4 µM and the Kd (HLA-B*15:01 [1]; [7]) was 0.0259 µM.
With WLPMTVAAM the Kd (HLA-B*15:01 [1]; source organism: Dengue virus 3 Sri Lanka/1266/2000) was 0.177 µM.
Work on YLEYEIENF yielded an IC50 (HLA-A*02:01; [9]) of 42.6 µM and an IC50 (HLA-A*24:02; [9]) of 17.3 µM.
